According to article PMC4850058, “TRIP6 antagonizes the recruitment of A20 and CYLD to TRAF6 to promote the LPA2 receptor-mediated TRAF6 activation” (Cell Discovery, 2016):

Biological target: T1, purified recombinant TRIP6 (UniProt Q15654 1-476)
T1 construct: TRIP6; source: purified recombinant protein
T1 sequence (looked up): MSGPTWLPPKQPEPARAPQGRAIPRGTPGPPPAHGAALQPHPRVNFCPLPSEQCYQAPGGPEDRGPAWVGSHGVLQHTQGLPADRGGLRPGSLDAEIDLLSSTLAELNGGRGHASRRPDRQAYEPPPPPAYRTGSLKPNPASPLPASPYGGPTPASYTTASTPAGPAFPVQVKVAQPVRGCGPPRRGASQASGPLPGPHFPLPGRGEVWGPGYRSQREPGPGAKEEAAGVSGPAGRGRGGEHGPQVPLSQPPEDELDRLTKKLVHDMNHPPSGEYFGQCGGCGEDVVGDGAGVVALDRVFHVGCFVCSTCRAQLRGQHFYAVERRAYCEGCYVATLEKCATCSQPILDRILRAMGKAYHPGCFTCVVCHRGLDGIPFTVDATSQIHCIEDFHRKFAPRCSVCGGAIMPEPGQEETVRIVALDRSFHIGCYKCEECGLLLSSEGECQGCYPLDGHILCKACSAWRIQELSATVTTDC
Test: pull-down; purified recombinant TRIP6 incubated with GST, GST-TRAF6 or GST-CT, 4 °C, 3 h; anti-TRIP6 immunoblot
Conditions: both partners purified

B1: GST-CT mutant containing residues 239–530 of TRAF6 (domain or fragment, UniProt P70196 239-530, looked up)
chain: PIPCTFSVFGCHEKMQRNHLARHLQENTQLHMRLLAQAVHNVNLALRPCDAASPSRGCRPEDPNYEETIKQLESRLVRQDHQIRELTAKMETQSMYVGELKRTIRTLEDKVAEMEAQQCNGIYIWKIGNFGMHLKSQEEERPVVIHSPGFYTGRPGYKLCMRLHLQLPTAQRCANYISLFVHTMQGEYDSHLPWPFQGTIRLTILDQSEALIRQNHEEVMDAKPELLAFQRPTIPRNPKGFGYVTFMHLEALRQGTFIKDDTLLVRCEVSTRFDMGGLRKEGFQPRSTDAGV
notes: TRAF6 carboxyl-terminal domain, residues 239-530; also called TRAF6-CT domain; carboxyl-terminal domain; source: purified recombinant GST-tagged protein (pGEX-6P3)
binding result: binds
